Measured values reported in article PMC4466390, “Canonical and Noncanonical Sites Determine NPT2A Binding Selectivity to NHERF1 PDZ1” (PLoS ONE, 2015).
Values belong to the binder of their own block, whether it stands above or below them. Where no end group is shown, it is not given here.

B2: rhodamine-labeled 22-residue carboxy-terminal NPT2A peptide (peptide)
peptide: {5(6)‑carboxytetramethylrhodamine}-ELPPATPSPRLALPAHHNATRL
notes: type II sodium-dependent phosphate co-transporter (NPT2A, SLC34A1), 22-residue carboxy-terminal fragment; also called labeled NPT2A peptide; source: synthetic peptide (solid phase, Fmoc; HPLC purified)

Tests used:
Conditions in all cases: both partners purified
[1] = molecular target: T1, NHERF1 PDZ1 H27N/E43D (1–120) (human, UniProt O14745 1-120, H27N | E43D); assay: ITC; 25°C; 10 mM Hepes (pH 7.5), 10 mM NaCl, 0.5 mM EDTA, 0.5 mM beta-mercaptoethanol; 25 uM PDZ protein in the cell, NPT2A (200–250 uM) titrated in 19 injections of 2 ul
T1 construct: The double mutant's plasmid is not described in the methods; also called His27Asn/Glu43Asp PDZ1; source: E. coli BL21 (DE3), purified (Ni-NTA-agarose)
T1 sequence (looked up): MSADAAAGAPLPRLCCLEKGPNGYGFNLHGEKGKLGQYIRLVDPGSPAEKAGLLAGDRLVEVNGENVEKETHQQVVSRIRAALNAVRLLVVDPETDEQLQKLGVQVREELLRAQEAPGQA

NHERF1 PDZ1 E43D (1–120) = molecular target: T2, NHERF1 PDZ1 E43D (1–120) (human, UniProt O14745 1-120, E43D); assay: as above
T2 construct: the methods describe the mutants in PDZ1 (11-120), so 1-120 may be a misprint of 11-120; also called Glu43Asp; source: E. coli BL21 (DE3), purified (Ni-NTA-agarose)
T2 sequence (looked up): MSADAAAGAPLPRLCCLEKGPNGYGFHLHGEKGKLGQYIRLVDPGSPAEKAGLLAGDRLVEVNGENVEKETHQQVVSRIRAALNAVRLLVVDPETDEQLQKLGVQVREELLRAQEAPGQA

NHERF1 PDZ1 H27N (1–120) = molecular target: T3, NHERF1 PDZ1 H27N (1–120) (human, UniProt O14745 1-120, H27N); assay: as above
T3 construct: the methods describe the mutants in PDZ1 (11-120), so 1-120 may be a misprint of 11-120; also called His27Asn; source: E. coli BL21 (DE3), purified (Ni-NTA-agarose)
T3 sequence (looked up): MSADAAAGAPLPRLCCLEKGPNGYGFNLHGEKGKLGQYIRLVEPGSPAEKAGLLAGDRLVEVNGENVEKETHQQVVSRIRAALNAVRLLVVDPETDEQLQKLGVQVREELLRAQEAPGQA

NHERF1 PDZ1 (1–120) = molecular target: T4, NHERF1 PDZ1 (1–120) (human, UniProt O14745 1-120); assay: as above
T4 construct: the methods describe PDZ1 (11-120) and PDZ1 (1-140) but no 1-120 construct, so 1-120 may be a misprint of 11-120; Host and purification are the general statement of the methods; also called WT PDZ1; source: E. coli BL21 (DE3), purified (Ni-NTA-agarose)
T4 sequence (looked up): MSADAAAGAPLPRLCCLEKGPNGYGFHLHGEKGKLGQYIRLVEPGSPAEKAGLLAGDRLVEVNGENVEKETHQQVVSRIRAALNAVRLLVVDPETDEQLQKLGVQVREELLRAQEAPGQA

NHERF1 PDZ1 (1–140) [2] = molecular target: T5, NHERF1 PDZ1 (1–140) (human, UniProt O14745 1-140); assay: fluorescence polarisation; solution phase direct binding, PDZ construct varied against 0.5 uM or 1 uM rhodamine-labeled NPT2A peptide; FP buffer (25 mM NaH2PO4, 10 mM NaCl, pH 7.4, 1 mM DTT, 0.1 mg/ml bovine IgG, 0.5 mM Thesit); 25°C; anisotropy fitted to a 1:1 complex
T5 construct: Na+/H+ Exchanger Regulatory Factor-1 (NHERF1, EBP50), human, PDZ1 construct, residues 1-140; Plasmid pET16-N1P1 provided by D. F. Mierke; also called WT PDZ1 (1–140); pET16-N1P1; source: E. coli BL21 (DE3), purified (Ni-NTA-agarose)
T5 sequence (looked up): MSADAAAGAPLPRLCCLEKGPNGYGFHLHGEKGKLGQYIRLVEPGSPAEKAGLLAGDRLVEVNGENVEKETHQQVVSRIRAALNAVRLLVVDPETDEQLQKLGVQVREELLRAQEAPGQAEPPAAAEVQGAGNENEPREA

NHERF1 PDZ1 (11–120) = molecular target: T6, NHERF1 PDZ1 (11–120) (human, UniProt O14745 11-120); assay: as above
T6 construct: Na+/H+ Exchanger Regulatory Factor-1 (NHERF1, EBP50), human, PDZ1 construct, residues 11-120; also called WT PDZ1 (11–120); source: E. coli BL21 (DE3), purified (Ni-NTA-agarose)
T6 sequence (looked up): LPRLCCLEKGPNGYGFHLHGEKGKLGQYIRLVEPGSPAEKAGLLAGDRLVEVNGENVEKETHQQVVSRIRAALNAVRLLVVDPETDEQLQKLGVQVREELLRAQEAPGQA

NHERF1 PDZ1 (1–140) [3] = molecular target: T5, NHERF1 PDZ1 (1–140); assay: fluorescence polarisation; as a1 but at pH 6.0; 0.5 uM labeled NPT2A peptide, WT PDZ1 (1–140)
NHERF1 PDZ1 (1–140) [4] = molecular target: T5, NHERF1 PDZ1 (1–140); assay: fluorescence polarisation; as a1 but at pH 5.5; 0.5 uM labeled NPT2A peptide, WT PDZ1 (1–140)
[5] = molecular target: B2; assay: fluorescence polarisation; solution phase direct binding, PDZ construct varied against 0.5 uM or 1 uM rhodamine-labeled NPT2A peptide; FP buffer (25 mM NaH2PO4, 10 mM NaCl, pH 7.4, 1 mM DTT, 0.1 mg/ml bovine IgG, 0.5 mM Thesit); 25°C; anisotropy fitted to a 1:1 complex

Kd [1]: 17.9 ± 0.9 µM
dH [1]: -5.8 ± 0.6 kcal/mol
stoichiometry N [1]: 0.6
Kd (NHERF1 PDZ1 E43D (1–120)): 10.4 ± 0.8 µM
dH (NHERF1 PDZ1 E43D (1–120)): -3 ± 0.3 kcal/mol
stoichiometry N (NHERF1 PDZ1 E43D (1–120)): 0.6
Kd (NHERF1 PDZ1 H27N (1–120)): 5.3 ± 0.5 µM
dH (NHERF1 PDZ1 H27N (1–120)): -7.5 ± 0.7 kcal/mol
stoichiometry N (NHERF1 PDZ1 H27N (1–120)): 0.61
Kd (NHERF1 PDZ1 (1–120)): 3.1 ± 0.3 µM
dH (NHERF1 PDZ1 (1–120)): -8.2 ± 0.8 kcal/mol
stoichiometry N (NHERF1 PDZ1 (1–120)): 0.92
B1: NPT2A peptide (ligand titrated in ITC) (peptide)
peptide: ELPPATPSPRLALPAHHNATRL
notes: type II sodium-dependent phosphate co-transporter (NPT2A, SLC34A1), 22-residue carboxy-terminal fragment; Kept apart from m1 for that reason; also called ligand NPT2A; source: synthetic peptide

Binder: B2
Kd (NHERF1 PDZ1 (1–140) [2]): 1.7 ± 0.2 µM
Kd (NHERF1 PDZ1 (11–120)): 5.5 ± 0.6 µM
Kd (NHERF1 PDZ1 (1–140) [3]): 8 ± 1.8 µM
Kd (NHERF1 PDZ1 (1–140) [4]): 16.1 ± 3.3 µM

EC50 [5]: 20 ± 10 µM
B3: NHERF1 PDZ2 D183E (domain or fragment, human, UniProt O14745 133-300, looked up)
chain: NENEPREADKSHPEQRELRPRLCTMKKGPSGYGFNLHSDKSKPGQFIRSVEPDSPAEASGLRAQDRIVEVNGVCMEGKQHGDVVSAIRAGGDETKLLVVDRETDEFFKKCRVIPSQEHLNGPLPVPFTNGEIQKENSREALAEAALESPRPALVRSASSDTSEELNSQ
notes: Na+/H+ Exchanger Regulatory Factor-1 (NHERF1, EBP50), human, PDZ2 construct, residues 133-300 (mutation introduced into pET16-N1P2), Asp183Glu; also called Asp183Glu PDZ2; single PDZ2 mutant; source: E. coli BL21 (DE3), purified (Ni-NTA-agarose)

EC50 [5]: 11.7 ± 2 µM
B4: NHERF1 PDZ2 N167H/D183E (domain or fragment, human, UniProt O14745 133-300, looked up)
chain: NENEPREADKSHPEQRELRPRLCTMKKGPSGYGFHLHSDKSKPGQFIRSVEPDSPAEASGLRAQDRIVEVNGVCMEGKQHGDVVSAIRAGGDETKLLVVDRETDEFFKKCRVIPSQEHLNGPLPVPFTNGEIQKENSREALAEAALESPRPALVRSASSDTSEELNSQ
notes: Na+/H+ Exchanger Regulatory Factor-1 (NHERF1, EBP50), human, PDZ2 construct, residues 133-300 (mutations introduced into pET16-N1P2), Asn167His and Asp183Glu; also called Asn167His/Asp183Glu PDZ2; double PDZ2 mutant; source: E. coli BL21 (DE3), purified (Ni-NTA-agarose)
